Experimental data as given in article PMC8056151.

Biological target: AG-tagged DDB1 (DNA damage-binding protein 1) (human) (UniProt Q16531)
Test: Fluoppi

Sequence of UniProt Q16531 (Q16531 whole entry): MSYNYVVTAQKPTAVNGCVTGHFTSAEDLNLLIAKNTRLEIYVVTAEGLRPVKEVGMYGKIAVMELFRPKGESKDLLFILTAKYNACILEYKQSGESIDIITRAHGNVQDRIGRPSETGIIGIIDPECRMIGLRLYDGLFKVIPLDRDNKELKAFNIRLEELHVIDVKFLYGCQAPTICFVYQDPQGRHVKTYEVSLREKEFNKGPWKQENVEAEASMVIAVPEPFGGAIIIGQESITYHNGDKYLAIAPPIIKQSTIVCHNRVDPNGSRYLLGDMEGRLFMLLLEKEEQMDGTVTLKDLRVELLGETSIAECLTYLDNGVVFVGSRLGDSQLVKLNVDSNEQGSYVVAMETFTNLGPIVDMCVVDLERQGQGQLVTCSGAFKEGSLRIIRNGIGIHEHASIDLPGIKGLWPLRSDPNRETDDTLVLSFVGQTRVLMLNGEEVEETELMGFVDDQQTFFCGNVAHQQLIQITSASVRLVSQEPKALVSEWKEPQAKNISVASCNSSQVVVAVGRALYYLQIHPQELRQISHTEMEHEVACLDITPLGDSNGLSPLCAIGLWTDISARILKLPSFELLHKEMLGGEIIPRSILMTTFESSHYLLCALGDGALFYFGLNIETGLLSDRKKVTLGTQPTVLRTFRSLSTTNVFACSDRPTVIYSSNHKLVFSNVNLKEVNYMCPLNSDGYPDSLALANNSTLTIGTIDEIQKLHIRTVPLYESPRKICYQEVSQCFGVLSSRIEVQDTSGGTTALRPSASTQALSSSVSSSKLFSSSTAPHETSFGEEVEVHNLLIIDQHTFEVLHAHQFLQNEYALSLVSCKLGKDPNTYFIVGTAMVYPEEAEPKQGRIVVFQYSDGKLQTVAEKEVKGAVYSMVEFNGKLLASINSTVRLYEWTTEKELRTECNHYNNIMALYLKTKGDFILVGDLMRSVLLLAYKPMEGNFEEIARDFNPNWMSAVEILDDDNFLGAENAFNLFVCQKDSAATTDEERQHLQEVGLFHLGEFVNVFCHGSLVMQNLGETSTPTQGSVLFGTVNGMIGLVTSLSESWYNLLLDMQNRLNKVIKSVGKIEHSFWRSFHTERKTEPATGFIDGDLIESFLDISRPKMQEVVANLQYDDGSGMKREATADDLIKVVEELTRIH

Ash-tagged hepatitis B virus X protein (full-length HBx, wild type) (natural protein)
percent of fluorescent puncta left with NTZ: 50%
